The target in data set [1] is 3RJT protein Asn183Ala mutant (Alicyclobacillus acidocaldarius subsp. Acidocaldarius DSM446). Kind of data set: SEC.
For data set [2], the target named is Cph, Axe2 homologue. The experiment in a line: dynamic light scattering.
Data set [3] has as its target Cph, Axe2 homologue. The experiment in a line: SEC.
Data set [4] deals with Pal, Axe2 homologue. The experiment in a line: dynamic light scattering.
Data set [5] concerns the target Pal, Axe2 homologue. Kind of data set: SEC.
For data set [6], the target named is Pda, Axe2 homologue. Kind of data set: dynamic light scattering.
The target in data set [7] is Pda, Axe2 homologue. The experiment in a line: SEC.
Data set [8] concerns the target Pjd, Axe2 homologue. The experiment in a line: dynamic light scattering.
Data set [9] concerns the target Pjd, Axe2 homologue. Kind of data set: SEC.
Data set [10] deals with Sku, Axe2 homologue. The experiment in a line: dynamic light scattering.
Data set [11] deals with Sku, Axe2 homologue. Kind of data set: SEC.
Data set [12] deals with the molecule itself. The experiment in a line: SEC.
Data set [13] concerns the molecule itself. Kind of data set: SEC. This is another data set of the same source.
Data set [14] deals with the molecule itself. The experiment in a line: SEC. The source holds these as a separate data set.

Like-named read-outs stand apart in the source and are kept apart here.

This note sets out measurements from doi:10.1101/466904 (bioRxiv, 2018).

In turn, 3RJT protein Asn183Ala mutant (enzyme) came in with a stoichiometry N in [1] of 2. Cph, Axe2 homologue (enzyme): the stoichiometry N with Cph, Axe2 homologue [2] amounted to 8; with Cph, Axe2 homologue [3], 8. Pal, Axe2 homologue (enzyme): the stoichiometry N in the data set with Pal, Axe2 homologue [4] came to 8; in the data set with Pal, Axe2 homologue [5] it was 8. On to Pda, Axe2 homologue (enzyme), for which the stoichiometry N in the data set with Pda, Axe2 homologue [6] came to 8; in the data set with Pda, Axe2 homologue [7] it was 8. Consider Pjd, Axe2 homologue (enzyme), for which the stoichiometry N is 8 with Pjd, Axe2 homologue [8] and 8 with Pjd, Axe2 homologue [9]. For the molecule Sku, Axe2 homologue (enzyme), the stoichiometry N with Sku, Axe2 homologue [10] was 8; with Sku, Axe2 homologue [11] it was 8.

B1: Axe2 acetyl-xylo-oligosaccharide esterase from Geobacillus stearothermophilus, wild type (enzyme)
chain: MKIGSGEKLLFIGDSITDCGRARPEGEGSFGALGTGYVAYVVGLLQAVYPELGIRVVNKGISGNTVRDLKARWEEDVIAQKPDWVSIMIGINDVWRQYDLPFMKEKHVYLDEYEATLRSLVLETKPLVKGIILMTPFYIEGNEQDPMRRTMDQYGRVVKQIAEETNSLFVDTQAAFNEVLKTLYPAALAWDRVHPSVAGHMILARAFLREIGFEWVRSR
As for B1, the “stoichiometry N” value in “SEC [12]” is 8.

B2: Axe2 Arg55Glu mutant (enzyme)
chain: MKIGSGEKLLFIGDSITDCGRARPEGEGSFGALGTGYVAYVVGLLQAVYPELGIEVVNKGISGNTVRDLKARWEEDVIAQKPDWVSIMIGINDVWRQYDLPFMKEKHVYLDEYEATLRSLVLETKPLVKGIILMTPFYIEGNEQDPMRRTMDQYGRVVKQIAEETNSLFVDTQAAFNEVLKTLYPAALAWDRVHPSVAGHMILARAFLREIGFEWVRSR
As for B2, the figures for the “stoichiometry N” value in “SEC [13]” and in the data set “SEC [14]” were 2 and 8, respectively.

B3: Axe2 Trp190Ile mutant (enzyme)
chain: MKIGSGEKLLFIGDSITDCGRARPEGEGSFGALGTGYVAYVVGLLQAVYPELGIRVVNKGISGNTVRDLKARWEEDVIAQKPDWVSIMIGINDVWRQYDLPFMKEKHVYLDEYEATLRSLVLETKPLVKGIILMTPFYIEGNEQDPMRRTMDQYGRVVKQIAEETNSLFVDTQAAFNEVLKTLYPAALAIDRVHPSVAGHMILARAFLREIGFEWVRSR
With B3, the “stoichiometry N” value in “SEC [12]” was found to be 8.

B4: Axe2 Tyr184Phe mutant (enzyme)
chain: MKIGSGEKLLFIGDSITDCGRARPEGEGSFGALGTGYVAYVVGLLQAVYPELGIRVVNKGISGNTVRDLKARWEEDVIAQKPDWVSIMIGINDVWRQYDLPFMKEKHVYLDEYEATLRSLVLETKPLVKGIILMTPFYIEGNEQDPMRRTMDQYGRVVKQIAEETNSLFVDTQAAFNEVLKTLFPAALAWDRVHPSVAGHMILARAFLREIGFEWVRSR
For B4, the “stoichiometry N” value in “SEC [12]” amounted to 2.

B5: Axe2 Arg192Lys mutant (enzyme)
chain: MKIGSGEKLLFIGDSITDCGRARPEGEGSFGALGTGYVAYVVGLLQAVYPELGIRVVNKGISGNTVRDLKARWEEDVIAQKPDWVSIMIGINDVWRQYDLPFMKEKHVYLDEYEATLRSLVLETKPLVKGIILMTPFYIEGNEQDPMRRTMDQYGRVVKQIAEETNSLFVDTQAAFNEVLKTLYPAALAWDKVHPSVAGHMILARAFLREIGFEWVRSR
In the case of B5, the “stoichiometry N” value in the data set “SEC [12]” turned out to be 2.

B6: Axe2 triple mutant Tyr184Phe-Arg205Ala-Trp215Ala (enzyme)
chain: MKIGSGEKLLFIGDSITDCGRARPEGEGSFGALGTGYVAYVVGLLQAVYPELGIRVVNKGISGNTVRDLKARWEEDVIAQKPDWVSIMIGINDVWRQYDLPFMKEKHVYLDEYEATLRSLVLETKPLVKGIILMTPFYIEGNEQDPMRRTMDQYGRVVKQIAEETNSLFVDTQAAFNEVLKTLFPAALAWDRVHPSVAGHMILAAAFLREIGFEAVRSR
With B6, the “stoichiometry N” value in “SEC [12]” was determined as 2.

B7: Axe2 Arg55Ala mutant (enzyme)
chain: MKIGSGEKLLFIGDSITDCGRARPEGEGSFGALGTGYVAYVVGLLQAVYPELGIAVVNKGISGNTVRDLKARWEEDVIAQKPDWVSIMIGINDVWRQYDLPFMKEKHVYLDEYEATLRSLVLETKPLVKGIILMTPFYIEGNEQDPMRRTMDQYGRVVKQIAEETNSLFVDTQAAFNEVLKTLYPAALAWDRVHPSVAGHMILARAFLREIGFEWVRSR
For B7, the “stoichiometry N” value in the data set “SEC [14]” was determined as 8.
